Assay results as given in patent US20060127407A1.

Target: alphaVbeta3 integrin (human) (UniProt P06756)
Test: ELISA, purified antibody on alphaVbeta3

Chain of alphaVbeta3 integrin (human) (P06756 31-1048, chain 1 of 2): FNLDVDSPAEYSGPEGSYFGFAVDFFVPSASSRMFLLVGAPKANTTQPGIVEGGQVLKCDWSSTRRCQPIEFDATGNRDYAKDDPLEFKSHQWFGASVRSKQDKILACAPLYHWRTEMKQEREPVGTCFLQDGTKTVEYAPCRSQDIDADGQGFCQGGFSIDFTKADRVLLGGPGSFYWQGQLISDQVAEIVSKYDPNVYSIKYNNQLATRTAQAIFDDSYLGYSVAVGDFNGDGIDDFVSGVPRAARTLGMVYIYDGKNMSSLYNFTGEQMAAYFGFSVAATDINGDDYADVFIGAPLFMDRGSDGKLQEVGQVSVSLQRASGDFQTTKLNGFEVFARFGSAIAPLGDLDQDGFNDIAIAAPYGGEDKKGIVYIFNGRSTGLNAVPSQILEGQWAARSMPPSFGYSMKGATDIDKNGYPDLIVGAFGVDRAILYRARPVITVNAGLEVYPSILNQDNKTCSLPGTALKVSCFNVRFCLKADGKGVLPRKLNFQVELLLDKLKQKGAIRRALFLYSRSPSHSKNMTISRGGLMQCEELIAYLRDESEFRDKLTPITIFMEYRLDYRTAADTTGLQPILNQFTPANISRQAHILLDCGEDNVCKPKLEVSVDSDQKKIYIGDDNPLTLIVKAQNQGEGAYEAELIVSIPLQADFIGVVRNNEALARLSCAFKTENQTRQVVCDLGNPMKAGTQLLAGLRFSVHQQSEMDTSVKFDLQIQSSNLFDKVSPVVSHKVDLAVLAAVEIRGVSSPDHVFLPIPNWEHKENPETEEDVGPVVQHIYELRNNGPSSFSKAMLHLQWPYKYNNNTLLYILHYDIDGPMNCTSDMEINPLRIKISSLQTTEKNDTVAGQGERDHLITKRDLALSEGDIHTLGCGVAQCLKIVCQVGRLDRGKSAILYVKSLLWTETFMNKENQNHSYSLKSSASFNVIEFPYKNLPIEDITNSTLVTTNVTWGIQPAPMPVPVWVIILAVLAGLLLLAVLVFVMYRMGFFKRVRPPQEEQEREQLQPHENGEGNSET
Chain of alphaVbeta3 integrin (human) (P05106 27-788, chain 2 of 2, further chain): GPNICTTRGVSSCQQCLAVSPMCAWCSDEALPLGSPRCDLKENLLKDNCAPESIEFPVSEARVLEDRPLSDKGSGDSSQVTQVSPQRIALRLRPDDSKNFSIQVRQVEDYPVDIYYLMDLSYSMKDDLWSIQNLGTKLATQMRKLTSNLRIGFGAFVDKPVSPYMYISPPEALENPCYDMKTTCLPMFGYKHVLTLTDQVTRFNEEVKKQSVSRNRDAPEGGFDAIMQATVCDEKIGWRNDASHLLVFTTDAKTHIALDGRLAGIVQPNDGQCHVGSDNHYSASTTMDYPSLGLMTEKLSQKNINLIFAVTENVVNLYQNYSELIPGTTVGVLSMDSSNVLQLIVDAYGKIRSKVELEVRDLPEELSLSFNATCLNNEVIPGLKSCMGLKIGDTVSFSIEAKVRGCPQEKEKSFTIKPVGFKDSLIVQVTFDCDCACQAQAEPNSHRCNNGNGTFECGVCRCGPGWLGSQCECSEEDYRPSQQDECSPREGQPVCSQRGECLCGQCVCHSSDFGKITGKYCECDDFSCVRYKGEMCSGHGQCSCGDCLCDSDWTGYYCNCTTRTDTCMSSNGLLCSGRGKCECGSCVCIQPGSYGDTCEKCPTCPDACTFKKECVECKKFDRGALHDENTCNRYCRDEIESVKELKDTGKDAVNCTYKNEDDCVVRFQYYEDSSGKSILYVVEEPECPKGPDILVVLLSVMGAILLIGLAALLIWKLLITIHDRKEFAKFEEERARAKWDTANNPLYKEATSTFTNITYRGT

EC50: 0.07 µg/mL
B1: c7E3 IgG (antibody, INN chains, looked up, V domains shown)
VH: EVQLQQSGTVLARPGASVKMSCEASGYTFTNYWMHWVKQRPGQGLEWIGAIYPGNSDTSYIQKFKGKAKLTAVTSTTSVYMELSSLTNEDSAVYYCTLYDGYYVFAYWGQGTLVTVSA
VL: EIVLTQSPVTLSVTPGDSVSLSCRASRDISNNLHWFQQTSHESPRLLIKYASQSMSGIPSRFSGSGSGTDFTLSINSVETEDFGMYFCQQTNSWPYTFGGGTKLEIK
modifications: IgG
